The record followed here is IntAct's records for PubMed 10648618.

B1: Carbon catabolite-derepressing protein kinase (Saccharomyces cerevisiae), P06782 (parent)
chain: MSSNNNTNTAPANANSSHHHHHHHHHHHHHGHGGSNSTLNNPKSSLADGAHIGNYQIVKTLGEGSFGKVKLAYHTTTGQKVALKIINKKVLAKSDMQGRIEREISYLRLLRHPHIIKLYDVIKSKDEIIMVIEYAGNELFDYIVQRDKMSEQEARRFFQQIISAVEYCHRHKIVHRDLKPENLLLDEHLNVKIADFGLSNIMTDGNFLKTSCGSPNYAAPEVISGKLYAGPEVDVWSCGVILYVMLCRRLPFDDESIPVLFKNISNGVYTLPKFLSPGAAGLIKRMLIVNPLNRISIHEIMQDDWFKVDLPEYLLPPDLKPHPEEENENNDSKKDGSSPDNDEIDDNLVNILSSTMGYEKDEIYESLESSEDTPAFNEIRDAYMLIKENKSLIKDMKANKSVSDELDTFLSQSPPTFQQQSKSHQKSQVDHETAKQHARRMASAITQQRTYHQSPFMDQYKEEDSTVSILPTSLPQIHRANMLAQGSPAASKISPLVTKKSKTRWHFGIRSRSYPLDVMGEIYIALKNLGAEWAKPSEEDLWTIKLRWKYDIGNKTNTNEKIPDLMKMVIQLFQIETNNYLVDFKFDGWESSYGDDTTVSNISEDEMSTFSAYPFLHLTTKLIMELAVNSQSN
partner: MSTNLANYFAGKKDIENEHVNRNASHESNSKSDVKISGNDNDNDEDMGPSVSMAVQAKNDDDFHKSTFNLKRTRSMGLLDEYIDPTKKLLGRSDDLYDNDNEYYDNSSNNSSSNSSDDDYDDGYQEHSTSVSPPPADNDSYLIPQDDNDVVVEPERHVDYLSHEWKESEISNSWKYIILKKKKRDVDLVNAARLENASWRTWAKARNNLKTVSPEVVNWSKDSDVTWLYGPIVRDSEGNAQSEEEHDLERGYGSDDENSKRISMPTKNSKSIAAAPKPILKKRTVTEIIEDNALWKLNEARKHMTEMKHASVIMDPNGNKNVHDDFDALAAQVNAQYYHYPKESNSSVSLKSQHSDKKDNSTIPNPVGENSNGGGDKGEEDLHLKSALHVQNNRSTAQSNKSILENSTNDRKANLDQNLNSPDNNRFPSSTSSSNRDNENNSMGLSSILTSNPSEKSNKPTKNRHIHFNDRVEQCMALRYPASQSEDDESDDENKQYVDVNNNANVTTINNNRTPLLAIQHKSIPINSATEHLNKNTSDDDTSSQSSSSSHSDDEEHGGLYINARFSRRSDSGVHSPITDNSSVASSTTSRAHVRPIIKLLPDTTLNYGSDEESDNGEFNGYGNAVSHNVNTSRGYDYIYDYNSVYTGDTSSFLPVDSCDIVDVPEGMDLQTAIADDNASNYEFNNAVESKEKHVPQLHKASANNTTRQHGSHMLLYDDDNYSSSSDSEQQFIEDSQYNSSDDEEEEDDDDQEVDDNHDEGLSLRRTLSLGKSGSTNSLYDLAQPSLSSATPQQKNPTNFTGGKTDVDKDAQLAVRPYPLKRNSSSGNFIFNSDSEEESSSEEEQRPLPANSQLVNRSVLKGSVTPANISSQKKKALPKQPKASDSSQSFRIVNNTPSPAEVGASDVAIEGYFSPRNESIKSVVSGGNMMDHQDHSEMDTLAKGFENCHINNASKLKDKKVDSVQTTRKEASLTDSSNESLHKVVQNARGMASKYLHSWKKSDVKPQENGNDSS

Variants of B1 are the subject of the first test. Conditions: with reg1_yeast REG1, Q00816.
K84R: the “effect of a mutation on the interaction” value is “with no effect”.

The variants in the next test derive from B1. Conditions: with reg1_yeast REG1, Q00816. This is another data set of the same source.
On to K84R, for which the “effect of a mutation on the interaction” value is listed as “increasing interaction strength”.
